Drawing on KR20210116113A, this text covers absorbance and delta (absorbance for one molecule.

Assay [1] has as its target T1, c-Myc 펩타이드 (…).
T1 sequence (peptide): MPLNVSFTSRNYDLD
In words: ELISA, c-Myc peptide coated at 2 ug/ml, scFv at 4 ug/ml (replicate), anti-HA peroxidase detection. A general note: ELISA stands for enzyme-linked immunosorbent assay.

Assay [2] has as its target T1, c-Myc 펩타이드 (…). In words: ELISA, c-Myc peptide coated at 2 ug/ml, scFv at 1 ug/ml, anti-HA peroxidase detection.
Assay [3] addresses T1, c-Myc 펩타이드 (…). In words: ELISA, c-Myc peptide coated at 2 ug/ml, scFv at 4 ug/ml, anti-HA peroxidase detection.
Assay [4] addresses T1, c-Myc 펩타이드 (…). In words: ELISA, c-Myc peptide coated at 2 ug/ml, scFv at 2 ug/ml (replicate), anti-HA peroxidase detection.
The target in assay [5] is T1, c-Myc 펩타이드 (…). In words: ELISA, c-Myc peptide coated at 2 ug/ml, scFv at 1 ug/ml (replicate), anti-HA peroxidase detection.
Assay [6] addresses T1, c-Myc 펩타이드 (…). In words: ELISA, c-Myc peptide coated at 2 ug/ml, scFv at 0.5 ug/ml, anti-HA peroxidase detection.
The target in assay [7] is T1, c-Myc 펩타이드 (…). In words: ELISA, c-Myc peptide coated at 2 ug/ml, scFv at 0.5 ug/ml (replicate), anti-HA peroxidase detection.
Assay [8] addresses T1, c-Myc 펩타이드 (…). In words: ELISA, c-Myc peptide coated at 2 ug/ml, scFv at 2 ug/ml, anti-HA peroxidase detection.

B1: clone 1D1 항체 (scFv, anti-c-Myc-tag 1D1) (scFv)
scFv: LTQPSSVSANLGETQDHCSGGGSNSAYGWFQQKSPGSAPVTLIYDNTNRPSNIPSRFSGSKSGSTATLTITGVQADDEAVYYCGSAGSSYVGIFGAGTTLTVLGQSSRSSSGGGSSGGGGSAVTLDESGGGLQTPGGGLSLVCKGSGFTFSSYQMNWIRQAPGKGLEFVAAINRFGNRTGYGAAVKGRATISRGDGQSTVRLQLNNLRAEDTATYYCAKAAYGYCGSGGWRDVAGTDAWGHGTEVIVSSTS
For the molecule B1, the absorbance at 450 nm (antigen(peptide) coating) amounted to 2.17 OD 450nm with c-Myc 펩타이드 (…) [1]; 0.808 OD 450nm in the assay with c-Myc 펩타이드 (…) [2]; 2.15 OD 450nm in the assay with c-Myc 펩타이드 (…) [3]; 1.3 OD 450nm in the assay with c-Myc 펩타이드 (…) [4]; 0.788 OD 450nm with c-Myc 펩타이드 (…) [5]; 0.415 OD 450nm in the assay with c-Myc 펩타이드 (…) [6]. Besides, the absorbance at 450 nm (antigen(peptide) coating) with c-Myc 펩타이드 (…) [7] is 0.431 OD 450nm; in the assay with c-Myc 펩타이드 (…) [8], 1.31 OD 450nm. Further, the delta (absorbance at 450 nm minus background control) with c-Myc 펩타이드 (…) [1] worked out at 2.11 OD 450nm; with c-Myc 펩타이드 (…) [2] it was 0.756 OD 450nm; with c-Myc 펩타이드 (…) [3] it was 2.1 OD 450nm; with c-Myc 펩타이드 (…) [4], 1.25 OD 450nm; with c-Myc 펩타이드 (…) [5] it was 0.735 OD 450nm; with c-Myc 펩타이드 (…) [6], 0.363 OD 450nm. Besides, the delta (absorbance at 450 nm minus background control) with c-Myc 펩타이드 (…) [7] was 0.379 OD 450nm; in the assay with c-Myc 펩타이드 (…) [8] it was 1.26 OD 450nm.
